Laboratory results reported in IntAct's records for PubMed 29178645.

B1: Protein SHQ1 homolog (Homo sapiens), Q6PI26 (parent)
chain: MLTPAFDLSQDPDFLTIAIRVPYARVSEFDVYFEGSDFKFYAKPYFLRLTLPGRIVENGSEQGSYDADKGIFTIRLPKETPGQHFEGLNMLTALLAPRKSRTAKPLVEEIGASEIPEEVVDDEEFDWEIEQTPCEEVSESALNPQCHYGFGNLRSGVLQRLQDELSDVIDIKDPDFTPAAERRQKRLAAELAKFDPDHYLADFFEDEAIEQILKYNPWWTDKYSKMMAFLEKSQEQENHATLVSFSEEEKYQLRKFVNKSYLLDKRACRQVCYSLIDILLAYCYETRVTEGEKNVESAWNIRKLSPTLCWFETWTNVHDIMVSFGRRVLCYPLYRHFKLVMKAYRDTIKILQLGKSAVLKCLLDIHKIFQENDPAYILNDLYISDYCVWIQKVKSKKLAALAEALKEVSLTKAQLGLELEELEAAALLVQEEETALKAAHSVSGQQTLCSSSEASDSEDSDSSVSSGNEDSGSDSEQDELKDSPSETVSSLQGPFLEESSAFLIVDGGVRRNTAIQESDASQGKPLASSWPLGVSGPLIEELGEQLKTTVQVSEPKGTTAVNRSNIQERDGCQTPNN
partner: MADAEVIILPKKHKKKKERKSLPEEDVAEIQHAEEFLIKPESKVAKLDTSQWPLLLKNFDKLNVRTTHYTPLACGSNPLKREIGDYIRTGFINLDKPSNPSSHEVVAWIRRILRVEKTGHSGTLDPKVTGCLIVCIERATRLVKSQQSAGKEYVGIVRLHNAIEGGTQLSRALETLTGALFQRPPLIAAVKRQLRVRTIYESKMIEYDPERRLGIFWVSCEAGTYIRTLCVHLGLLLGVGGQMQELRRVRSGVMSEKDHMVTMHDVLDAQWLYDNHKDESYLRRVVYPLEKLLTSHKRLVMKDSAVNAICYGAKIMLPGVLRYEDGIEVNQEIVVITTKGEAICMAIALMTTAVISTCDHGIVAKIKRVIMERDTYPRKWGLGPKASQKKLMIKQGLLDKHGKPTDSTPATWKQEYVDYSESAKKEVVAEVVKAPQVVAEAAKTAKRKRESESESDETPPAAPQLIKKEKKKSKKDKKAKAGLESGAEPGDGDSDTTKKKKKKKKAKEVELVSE

Variants of: B1
Conditions: with dkc1_human DKC1, O60832

Variant | effect of a mutation on the interaction
A426V | decreasing interaction strength
R335C;A426V | decreasing interaction strength
R335C | decreasing interaction strength
